B1: MMP-2: commercially available full length pro-MMP 2 (protein, UniProt P08253 30-660, looked up)
pro-form: APSPIIKFPGDVAPKTDKELAVQYLNTFYGCPKESCNLFVLKDTLKKMQKFFGLPQTGDLDQNTIETMRKPRCGNPDVANYNFFPRKPKWDKNQITYRIIGYTPDLDPETVDDAFARAFQVWSDVTPLRFSRIHDGEADIMINFGRWEHGDGYPFDGKDGLLAHAFAPGTGVGGDSHFDDDELWTLGEGQVVRVKYGNADGEYCKFPFLFNGKEYNSCTDTGRSDGFLWCSTTYNFEKDGKYGFCPHEALFTMGGNAEGQPCKFPFRFQGTSYDSCTTEGRTDGYRWCGTTEDYDRDKKYGFCPETAMSTVGGNSEGAPCVFPFTFLGNKYESCTSAGRSDGKMWCATTANYDDDRKWGFCPDQGYSLFLVAAHEFGHAMGLEHSQDPGALMAPIYTYTKNFRLSQDDIKGIQELYGASPDIDLGTGPTPTLGPVTPEICKQDIVFDGIAQIRGEIFFFKDRFIWRTVTPRDKPMGPLLVATFWPELPEKIDAVYEAPQEEKAVFFAGNEYWIYSASTLERGYPKPLTSLGLPPDVQRVDAAFNWSKNKKTYIFAGDKFWRYNEVKKKMDPGFPKLIADAWNAIPDNLDAVVDLQGGGHSYFFKGAYYLKLENQSLKSVKFGSIKSDWLGC
modifications: pro-form
B2: MMP-12: functional full-length recombinant human MMP-12 (macrophage elastase), Genbank NP_002417 (protein, listed as Homo sapiens)
chain: MKFLLILLLQATASGALPLNSSTSLEKNNVLFGERYLEKFYGLEINKLPVTKMKYSGNLMKEKIQEMQHFLGLKVTGQLDTSTLEMMHAPRCGVPDLHHFREMPGGPVWRKHYITYRINNYTPDMNREDVDYAIRKAFQVWSNVTPLKFSKINTGMADILVVFARGAHGDFHAFDGKGGILAHAFGPGSGIGGDAHFDEDEFWTTHSGGTNLFLTAVHEIGHSLGLGHSSDPKAVMFPTYKYVDINTFRLSADDIRGIQSLYGDPKENQRLPNPDNSEPALCDPNLSFDAVTTVGNKIFFFKDRFFWLKVSERPKTSVNLISSLWPTLPSGIEAAYEIEARNQVFLFKDDKYWLISNLRPEPNYPKSIHSFGFPNFVKKIDAAVFNPRFYRTYFFVDNQYWRYDERRQMMDPGYPKLITKNFQGIGPKIDAVFYSKNKYYYFFQGSNQFEYDFLLQRITKTLKSNSWFGC
B3: MMP-9: commercially available full length pro-MMP 9 (protein, UniProt P14780 20-707, looked up)
pro-form: APRQRQSTLVLFPGDLRTNLTDRQLAEEYLYRYGYTRVAEMRGESKSLGPALLLLQKQLSLPETGELDSATLKAMRTPRCGVPDLGRFQTFEGDLKWHHHNITYWIQNYSEDLPRAVIDDAFARAFALWSAVTPLTFTRVYSRDADIVIQFGVAEHGDGYPFDGKDGLLAHAFPPGPGIQGDAHFDDDELWSLGKGVVVPTRFGNADGAACHFPFIFEGRSYSACTTDGRSDGLPWCSTTANYDTDDRFGFCPSERLYTQDGNADGKPCQFPFIFQGQSYSACTTDGRSDGYRWCATTANYDRDKLFGFCPTRADSTVMGGNSAGELCVFPFTFLGKEYSTCTSEGRGDGRLWCATTSNFDSDKKWGFCPDQGYSLFLVAAHEFGHALGLDHSSVPEALMYPMYRFTEGPPLHKDDVNGIRHLYGPRPEPEPRPPTTTTPQPTAPPTVCPTGPPTVHPSERPTAGPTGPPSAGPTGPPTAGPSTATTVPLSPVDDACNVNIFDAIAEIGNQLYLFKDGKYWRFSEGRGSRPQGPFLIADKWPALPRKLDSVFEERLSKKLFFFSGRQVWVYTGASVLGPRRLDKLGLGADVAQVTGALRSGRGKMLLFSGRRLWRFDVKAQMVDPRSASEVDRMFPGVPLDTHDVFQYREKAYFCQDRFYWRVSSRSELNQVDQVGYVTYDILQCPED
modifications: pro-form

Experiments:
S. aureus = assay: In vitro antimicrobial activity, co-incubation with S. aureus in 5% LB and CFU count; type: cell-based, Staphylococcus aureus; details: for direct antimicrobial activity: S. aureus, similar doses and conditions as full-length MMP-12; for antimicrobial activity after heat denaturation: heat denaturation / heat inactivation; for antimicrobial activity after enzymatic inhibition: inhibited with hydroxamic acid, an MMP inhibitor
Method: S. aureus co-culture was incubated for 60 minutes with doses of MMP-12 C-terminal. Aliquots of cultures were diluted in PBS at 1:10 and 1:100 dilution. Dilutions were plated on LB agar plates for 18 hour incubation at 37° C. Controls consisted of column fractions that lacked MMP-12 carboxy terminal determined by immunoblotting.
(§1) MMP-12's mechanism of action as a host defense protein was investigated. To test for direct activity, functional full-length recombinant human MMP-12 was incubated with S. aureus in a 5% LB culture. […] MMP-12 enzymatic activity was not required for this antimicrobial effect.
(§2) Mid-log phase bacteria (10^5) were incubated in the absence or presence of purified MMP-12 C-terminal in a total volume of 100 μl of 10 mmol/L sodium phosphate containing 5% (vol/vol) TSB at 37° C. for 1 hour. Serial dilutions were then spread on agarose plates and the number of CFUs were determined after overnight incubation.

K. pneumonia = assay: In vitro antimicrobial activity against K. pneumonia; type: cell-based; details: compared with S. aureus dose response
Method: as §1
Recombinant full length human MMP-12 was co-incubated with S. aureus and K. pneumonia for 2 hours. Dose response curve was for recombinant murine carboxy terminal domain against S. aureus and E. coli after one-hour co-incubation.

E. coli (K1) = assay: In vitro antimicrobial activity against E. coli (K1); type: cell-based
Method: as §2

Row | Molecule | direct antimicrobial activity (S. aureus; 5% LB culture) | antimicrobial activity against K. pneumonia (K. pneumonia) | bacterial kill (S. aureus; 16 μg/ml, 2-hour incubation, 5% LB culture) | direct antimicrobial activity (S. aureus; 5% LB culture, listed as pro-MMP-12) | antimicrobial activity after heat denaturation (S. aureus) | antimicrobial activity after heat denaturation (S. aureus; listed as Pro-MMP-12) | antimicrobial activity after enzymatic inhibition (S. aureus) | antimicrobial activity after enzymatic inhibition (S. aureus; listed as Pro-MMP-12) | antimicrobial activity against E. coli (K1) (E. coli (K1))
1 | B1 | did not demonstrate this direct antimicrobial activity |  |  |  |  |  |  |  | 
2 | B2 | antimicrobial activity | antimicrobial activity | 90% | direct anti-microbial effect | Neither the denatured MMP-12 or enzymatically inhibited enzyme lost its antimicrobial function | did not lose its anti-microbial activity | Neither the denatured MMP-12 or enzymatically inhibited enzyme lost its antimicrobial function | did not lose its anti-microbial activity | antimicrobial activity
3 | B3 | did not demonstrate this direct antimicrobial activity |  |  |  |  |  |  |  | 

Source: patent US20030235577A1, “Methods and compositions for preventing and treating microbial infections” (priority 2002, published 2003)
